Data as given in US20110076272A1, “THERAPEUTIC METHODS AND COMPOSITIONS” (priority 2009, published 2011).

Key:
[1] = test system: purified recombinant human LOXL2; test: Amplex Red assay of LOXL2 enzymatic activity; assay type: biochemical
Method: (§1) A mouse anti-human LOXL2 antibody (AB0023) was obtained by immunization with full-length LOXL2 protein and purified by SEC-HPLC (Tosoh TSKGEL G3000SWXL 7.8×300). Analytical size exclusion chromatography was used to assess antibody stability and purity. Purified AB0023 was run on SDS-PAGE Coomassie (Invitrogen BT 4-12% Gels) reducing and non-reducing gels to assess purity. Potency was examined by ELISA to determine Kd, and effect on LOXL2 enzymatic activity was determined using an Amplex Red Assay (Molecular Probes/Invitrogen, Carlsbad, Calif.). Antibody concentration was measured by absorbance at 280 nm using an Extinction Coefficient Abs 0.1% of 1.4. Identity was assayed by isoelectric focusing (Invitrogen pH 3-10 IEF Gels). For safety analysis, endotoxin levels were measured at a sensitivity range of 0.01-1 EU/ml (Charles River EndoSafe PTS).

[2] = biological target: T1, LOXL2 (Homo sapiens, UniProt Q9Y4K0); test: Western blot analysis and ELISA of AB0023 specificity; assay type: binding
T1 sequence (Q9Y4K0 26-774): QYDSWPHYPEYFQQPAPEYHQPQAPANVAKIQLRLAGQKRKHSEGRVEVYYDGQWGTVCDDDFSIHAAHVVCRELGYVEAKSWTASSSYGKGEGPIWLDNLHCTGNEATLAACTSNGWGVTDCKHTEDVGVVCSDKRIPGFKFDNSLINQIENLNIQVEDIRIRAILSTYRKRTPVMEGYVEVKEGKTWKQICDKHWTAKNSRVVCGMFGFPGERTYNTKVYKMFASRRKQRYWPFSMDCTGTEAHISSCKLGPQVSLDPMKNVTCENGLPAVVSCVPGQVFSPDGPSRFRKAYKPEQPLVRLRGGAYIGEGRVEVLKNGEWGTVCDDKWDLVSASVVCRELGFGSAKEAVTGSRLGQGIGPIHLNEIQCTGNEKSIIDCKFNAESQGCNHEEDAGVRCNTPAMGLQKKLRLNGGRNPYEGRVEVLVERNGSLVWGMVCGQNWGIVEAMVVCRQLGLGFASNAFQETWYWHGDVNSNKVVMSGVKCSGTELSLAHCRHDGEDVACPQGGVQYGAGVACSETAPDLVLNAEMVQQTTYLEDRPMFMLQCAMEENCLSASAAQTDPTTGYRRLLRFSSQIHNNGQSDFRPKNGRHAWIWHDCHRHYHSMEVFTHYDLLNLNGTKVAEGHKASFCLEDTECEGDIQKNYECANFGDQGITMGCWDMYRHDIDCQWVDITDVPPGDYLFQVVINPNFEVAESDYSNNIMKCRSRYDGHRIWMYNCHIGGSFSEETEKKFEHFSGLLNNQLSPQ
Method: as §1

[3] = test system: CCl4-induced liver fibrosis; test: CCl4-induced liver fibrosis; assay type: in vivo, mouse; conditions: 30 mg/kg i.p. twice a week
Method: Male BALB/c mice (10-12 weeks old) were obtained from Aragen Biosciences (Morgan Hill, Calif.). Mice were distributed into 4 groups. Mice in 3 of the groups were injected with CCl4 (Sigma-Aldrich, St. Louis, Mo.), and mice in the remaining group were injected with saline.
CCl4 was intraperitoneally administered to mice at 1 ml/kg body weight (CCl4: mineral oil in 1:1 (v/v) ratio) twice weekly for 4 weeks. In the control group, 0.9% saline (saline:mineral oil in 1:1 (v/v) ratio) was administered intraperitoneally using the same dosing regimen.
In the CCl4-treated groups, the first group was treated with AB0023 (diluted in PBS/0.01% Tween-20), the second group was treated with pep4 M64 (diluted in […]) and the third group was treated with vehicle (PBST). Antibodies and vehicle were injected intraperioneally at a dose of 30 mg/kg twice a week. The treatment started a day prior to the first administration of CCl4 and continued until the end of the study. The study was terminated after 4 weeks of CCl4 and antibody administration. Mice were euthanized and sacrificed humanely and the livers were harvested 96 hours after completion of dosing. The livers were snap-frozen for histological and immunohistochemical analyses.
Ten fields (or areas or lobes) for each treatment regimen were randomly selected and stained with Sirius Red. The area used for scoring was 1.7 mm×1.3 mm and contained at least 8 portal triads.
Triads and areas of complete bridging fibrosis were counted. […] The percentages from 10 fields (per treatment) were averaged and standard error was calculated.
For each treatment, five fields were selected and stained with an anti-alpha-smooth muscle actin (aSMA) antibody. aSMA-positive signal in the porto-portal region (threshold area %) was analyzed by Metamorph (Molecular Devices, Downingtown, Pa.). aSMA-positive signal in sections from animals undergoing AB0023-treatment was compared to signal obtained in sections from animals that had been treated with vehicle (PBS).

[4] = test system: HFF cells; test: Transwell co-culture of HFF cells with LOXL2-secreting tumor cell lines; assay type: cell-based, human; conditions: 72 hours co-culture
[5] = test system: MCF7 cells; test: Induction of EMT-like phenotype by LOXL2-containing conditioned media (rhodamine-phalloidin staining); assay type: cell-based; conditions: MDA-MB231 or Hs-578t conditioned media; BAPN up to 2 mM
Method: Cells were seeded at 80% confluency, in an 8-chambered slide, 24 hours prior to the day of staining. After 24 hours, media was aspirated and the chambers were washed with PBS. Cells were then fixed with 4% Parafomaldehyde (PFA) for 20 minutes at room temperature and then permeabilized with 0.5% Saponin (JT Baker, Phillipsburg, N.J.) for 5 minutes at room temperature. Cells were then stained for 15 minutes at room temperature with a 1:100 dilution of rhodamine phalloidin (Invitrogen, Carlsbad, Calif.). Slides were mounted with Vectashield (Vector Laboratories, Burlingame, Calif.).
MCF7 or SW620 cells were seeded at 50,000 cells per well of an 8-chambered culture slide in HGDMEM (high-glucose Dulbecco's modified Eagle's medium containing 4.5 g/l glucose)+10% FBS, 2 mM L-glutamine, 24 hours prior to being exposed to conditioned medium (CM). 500 uls of fresh conditioned medium from MDA MB 231 cells was added to the chambers containing MCF7 cells. The cells were incubated with the CM for 48-96 hours. Conditioned medium from MCF7 or SW620 cells was used as a negative control. After 48-96 hours incubation with CM, the cells were stained with rhodamine-phalloidin as described above.

[6] = Repeat-dose tolerability in mice; conditions: 50 mg/kg twice per week for 14 weeks

B1: AB0023: mouse anti-human LOXL2 monoclonal antibody; heavy chain variable region SEQ ID NO:1, light chain variable region SEQ ID NO:2 (antibody, listed as Mus musculus, V domains shown)
VH: MEWSRVFIFLLSVTAGVHSQVQLQQSGAELVRPGTSVKVSCKASGYAFTYYLIEWVKQRPGQGLEWIGVINPGSGGTNYNEKFKGKATLTADKSSSTAYMQLSSLTSDDSAVYFCARNWMNFDYWGQGTTLTVSS
VL: MRCLAEFLGLLVLWIPGAIGDIVMTQAAPSVSVTPGESVSISCRSSKSLLHSNGNTYLYWFLQRPGQSPQFLIYRMSNLASGVPDRFSGSGSGTAFTLRISRVEAEDVGVYYCMQHLEYPYTFGGGTKLEIK
modifications: Heavy chain; Light chain
mode of inhibition of LOXL2 [1]: non-competitive allosteric inhibitors
inhibition of LOXL2 enzymatic activity ([1]; in vitro): inhibits
cross-reactivity with other lysyl oxidase-type enzymes [2]: no cross-reactivity
aSMA positive myofibroblasts in porto-portal septa [3]: substantial reduction
mortality resulting from injection with CCl4 (survival) ([3]; AB0023 p=0.0029 log rank): prevented
bridging fibrosis in livers ([3]; Sirius Red, AB0023 p=0.002, M64 p=0.127): significantly inhibited
reduction in VEGF protein expression [4]: 39-46%
reduction in α-SMA levels [4]: 41%
relative decrease in pSMAD2 phosphorylation [4]: 56-94%
remodeling of the actin cytoskeleton induced by LOXL2-containing conditioned media [5]: abrogated
tolerability [6]: well-tolerated
